Test results taken from US6685912B2, “Post-labeling stabilization of radiolabeled proteins and peptides” (Rhomed Incorporated, priority 1996, dated 2004).

Experiments:
Format in all cases: physicochemical
[1] = Cysteine displacement of Re-188 from Re-188-RC-160 (ITLC); details: addition of the ascorbate post-labeling
Procedure: Radiolabeling kits were prepared using aseptic techniques, with each kit prepared in a 10 ml serum vial using a 2 ml liquid fill. The liquid fill contained 200 μg of RC-160 peptide in 45 mM sodium potassium tartrate, 10 mM potassium hydrogen phthalate buffer, pH 5.0, in 5 mM stannous tartrate with 1% maltose added as a freeze-drying excipient. Each kit contained a maximum of 1.19 μg of tin. After filling, the vials were lyophilized, the head space gas filled with nitrogen, and the vials stoppered and crimped. Lyophilized vials were then stored refrigerated at 2-80C. To label a kit, 4-5 ml of 188Re-perrhenate solution containing 10-100 mCi was added to the kits, and the kits then heated in a boiling water bath for 30-45 minutes. Following a brief cooling period, 2 ml of ascorbic acid for Injection, U.S.P., was added to the labeled kit through a 0.22 micron filter. […] The amount of displacement was expressed as % of total radioactivity at the solvent front. […] Selected organs as shown in FIG. 4 were resected and weighed and the associated radioactivity was determined as a percentage of injected dose pr gram of tissue. The percent dose from blood, bone and muscle was calculated assuming 7, 8.2 and 40% of total body weight for these tissues. […]

[2] = Elution of Re-188-RC-160 from C18 SepPak columns (step-gradient of acidified ethanol) after adding post-labeling compounds
Procedure: FIG. 1B is an elution profile of Re-188-RC-160 from a C18-SepPak column using a step-gradient of acidified ethanol.
(§1) Radiolabeling kits were prepared using aseptic techniques, with each kit prepared in a 10 ml serum vial using a 2 ml liquid fill. The liquid fill contained 200 μg of RC-160 peptide in 45 mM sodium potassium tartrate, 10 mM potassium hydrogen phthalate buffer, pH 5.0, in 5 mM stannous tartrate with 1% maltose added as a freeze-drying excipient. Each kit contained a maximum of 1.19 μg of tin. After filling, the vials were lyophilized, the head space gas filled with nitrogen, and the vials stoppered and crimped. Lyophilized vials were then stored refrigerated at 2-80C. To label a kit, 4-5 ml of 188Re-perrhenate solution containing 10-100 mCi was added to the kits, and the kits then heated in a boiling water bath for 30-45 minutes. Following a brief cooling period, 2 ml of ascorbic acid for Injection, U.S.P., was added to the labeled kit through a 0.22 micron filter. Two types of parenteral ascorbate were used with similar results, Ascorbic Acid for Injection, U.S.P., 500 mg/2 ml, and Ascorvit™ (a preparation of ascorbate) 100 mg (Jenapharm, Germany). In this study, RC-160 was radiolabeled at pH 5.0 for 30 minutes at 90° C. and ascorbate was added postlabeling. The temperature effect is shown in FIGS. 2A and 2B: 19 minutes for 37° C. and 21 minutes for 900C. Also shown in FIG. 1B is an elution profile of Re-188-RC 160 from a C18 column using a step-gradient of acidified ethenol. […] FIG. 6. […] FIG. 7 and FIGS. 1A and 1B. […] Briefly, aliquots of 100 μl cysteine dissolved in phosphate buffer saline (pH 7.4 with 1 M NaOH) were diluted in separate microfuge tubes to result in a doubling dilution. 100 μl of Re188-RC-160 was added to each tube and mixed by inversion. The samples were incubated at 45 minutes at 37° C. or 90° C. A 10 μl aliquot of each sample was then spotted on heat-treated ITLC strip and chromatographed in PBS, pH 7.4 until the solvent was 0.5 cm from the strip top. The amount of displacement was expressed as % of total radioactivity at the solvent front. The results for two experiments conducted respectively at 37° and 90° C. are shown at FIG. 3. In a related manner, comparative biodistribution profiles of Re-188-RC-160 at 2 hours post injection into the tail vein of adult, female BALB/c mice (≈25 g weight) (n≧5/group) with each animal receiving 0.2 ml containing approximately 4 μCi. Selected organs as shown in FIG. 4 were resected and weighed and the associated radioactivity was determined as a percentage of injected dose pr gram of tissue. The percent dose from blood, bone and muscle was calculated assuming 7, 8.2 and 40% of total body weight for these tissues. 37° C. and 90° C. were the two temperatures at which radio labeling was performed.

[3] = as above; remark: listed apart in the source
[4] = Labeling efficiency of Re-188-RC-160 with ascorbic acid present during labeling (C18 SepPak, RP-HPLC, TLC)
Description: The results obtained by analytical RP-HPLC were confirmed by TLC studies and by isocratic elutions from C-18 SepPak columns. […] The RP-HPLC results were confirmed by TLC. […] The addition of ascorbate, or ascorbate/sulfite solutions, maximized the reduction of the peptide RC-160, which is present in excess, without compromising ^188Re-RC-160. The radiolabeling kit could be formulated with an excess of stannous ions and RC-160 to accommodate a variety of labeling situations. In the presence of ^188Re, the RC-160 and stannous ions interact to result in what is believed to be metal-cyclized ^188Re-RC-160. […] Since ^188Re is produced essentially carrier-free from a 188W/^188Re generator, it is hypothesized that excess stannous ions will reduce the RC-160 not complexed to ^188Re. […] The net result is a stable radiolabeled peptide with a very high specific activity.

[5] = Post-labeling stability of radiolabeled RC-160 (uncoupling of isotope) by TLC and RP-HPLC
Procedure: as §1

[6] = post-labeling Ascorbate for Injection, USP
[7] = post-labeling Ascorvit formulation
[8] = post-labeling ascorbate (50 mg/ml, pH 6.0)
[9] = post-labeling sodium bisulfite (1 mg/ml, pH 5.5)
[10] = post-labeling sodium sulfite (1 mg/ml, pH 7.4)
[11] = NO ASCORBATE during labeling, 20 mCi Re-188
[12] = PLUS ASCORBATE: 400 μg ascorbic acid introduced along with the Re-188, 20 mCi

## Re-188-RC-160: RC-160, cyclic somatostatin analogue D-Phe-Cys-Tyr-D-Trp-Lys-Val-Cys-Trp-NH2, radiolabeled with 188Re using stannous kit
[1]
  Re-peptide bond strength (cysteine displacement): not altered
[2]; [6]
  % of total radioactivity assayed, 0-20% ethanol fraction: 0.7%
  % of total radioactivity assayed, 40-60% ethanol fraction: 91.5%
  % of total radioactivity assayed, 80-100% ethanol fraction: 1.3%
  % of total radioactivity assayed, retained on column: 6.6%
[2]; [7]
  % of total radioactivity assayed, 0-20% ethanol fraction: 1.0%
  % of total radioactivity assayed, 40-60% ethanol fraction: 94.0%
  % of total radioactivity assayed, 80-100% ethanol fraction: 1.8%
  % of total radioactivity assayed, retained on column: 3.3%
[2]; post-labeling SALINE
  % of total radioactivity assayed, 0-20% ethanol fraction: 0.8%
  % of total radioactivity assayed, 40-60% ethanol fraction: 85.4%
  % of total radioactivity assayed, retained on column: 9.7%
[2]; [8]
  % of total radioactivity assayed, 0-20% ethanol fraction: 0.7%
  % of total radioactivity assayed, 40-60% ethanol fraction: 96.4%
  % of total radioactivity assayed, 80-100% ethanol fraction: 0.9%
  % of total radioactivity assayed, retained on column: 1.8%
[2]; [9]
  % of total radioactivity assayed, 0-20% ethanol fraction: 1.0%
[2]; [10]
  % of total radioactivity assayed, 0-20% ethanol fraction: 7.0%
  % of total radioactivity assayed, retained on column: 3.5%
[3]; post-labeling SALINE
  % of total radioactivity assayed, 80-100% ethanol fraction: 4.0%
[3]; [9]
  % of total radioactivity assayed, 40-60% ethanol fraction: 94.0%
  % of total radioactivity assayed, 80-100% ethanol fraction: 1.8%
  % of total radioactivity assayed, retained on column: 3.3%
[3]; [10]
  % of total radioactivity assayed, 40-60% ethanol fraction: 35.8%
  % of total radioactivity assayed, 80-100% ethanol fraction: 3.8%
[4]; [11]
  % of total radioactivity: 2.1%
  % of total radioactivity, 10% ethanol: 0.9%
  % of total radioactivity, 85% ethanol: 97.0%
[4]; [12]
  % of total radioactivity: 1.4%
  % of total radioactivity, 10% ethanol: 52.4%
  % of total radioactivity, 85% ethanol: 46.2%
[5]; 50 mg/ml ascorbate compared with 250 mg/ml of ascorbate
  stabilization post-labeling: yielded the same results
[5]; 30 hours post-labeling, 65 mCi of 188Re, ascorbate added after labeling
  free rhenium in HPLC profile: very little free rhenium could be found
[5]; ascorbate not added, TLC, confirmed by RP-HPLC
  stability post-labeling: stable for only up to two hours post-labeling
[5]; post-labeling addition of ascorbate
  stability post-labeling (uncoupling of 188Re from the peptide): essentially eliminate the uncoupling and stabilize
[5]; sodium sulfite (1 mg/ml pH 7.4), sodium bisulfite (1 mg/ml, pH 5.5), or mixtures of ascorbate with sodium sulfite, sodium bisulfite or EDTA
  stabilization post-labeling: also effective in stabilizing
